{
  "source": "the nanobody polyreactivity screen of Harvey et al. (2022)",
  "data": [
    {"experiment": "yeast display, Sf9 membrane polyspecificity reagent, FACS + sequencing; frameworks hold sequencing errors", "in_short": "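After 36–48 hours of galactose induction, yeast (Saccharomyces cerevisiae BJ5465) displaying a synthetic nanobody library were stained at 4 °C for 1 hour with 10% biotinylated, detergent-solubilized Sf9 membrane reagent. Streptavidin microbeads enriched the stained cells before FACS sorting into low and high (top ~1%) gates on anti-HA and streptavidin fluorescence. Each clone's polyreactivity label reflects its gate of origin.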", "values": [
      {"sequence": "QVQLVESGGGLVQAGGSLRLSCAASGYTFAGYAMGWYRQAPGKERELVAAISRNGGTTYYADSVKGRFTISRDNAKNTVYLQMNSLKPEDTADYYCNKRGWYSVYRRDYWGQGTQVTVSS", "polyreactivity (PSR sort gate)": "high polyreactivity"},
      {"sequence": "QVQLVESGGGLVQAGGSLRLSCAASGYTFANNAMGWYRQAPGKERELVAVITWSGDSTYYADSVKGRFTISRDNAKNTVYLQMNSQKAEDTAVYYCAREFSDGLSGKFDYWGQGTQLTVSS", "polyreactivity (PSR sort gate)": "low polyreactivity"},
      {"sequence": "QVQLVESGGGLVQAGGSLRLSCAASGYTFAPNTMGWYRQAPGKERELVATITVSGGITYADSVKGRFTISRDNAKNTVYLQMNSLKPEDTAVYYCAARTPGWYLPRDYWGQGTQVTVSS", "polyreactivity (PSR sort gate)": "low polyreactivity"},
      {"sequence": "QVQLVESGGGLVQAGGSLRLSCAASGYTFATYTMGWYRQAPGKERELVAAITGGGGSTSYADSVKGRFTISRDNAKNTVYLQMNSLKLEDTAVYYCNAGISVDYSLEKYDYWGQGTQVTVSS", "polyreactivity (PSR sort gate)": "low polyreactivity"},
      {"sequence": "QVQLVESGGGLVQAGGSLRLSCAASGYTFAWYAMGWYRQAPGKERELVAAITVSGGSTYYADSVKGRFTISRDNAKNTVYVQMNSLKPEDTAVYYCAADYAPLDLYQDSTVYSSGDYWGQGTQVTVSS", "polyreactivity (PSR sort gate)": "low polyreactivity"},
      {"sequence": "QVQLVESGGGLVQAGGSLRLSCAASGYTFAWYTMGWYRQAPGKERELVAAISASGVRTYYADSVKGRFTISRDNAKNTVYLQMNSLKPQDTAVYYCNRVYSTSRITQYEFDYWGQGTQVTVSS", "polyreactivity (PSR sort gate)": "low polyreactivity"},
      {"sequence": "QVQLVESGGGLVQAGGSLRLSCAASGYTFDAYAMGWYRQAPGKERELVAAITTNGGSTYYADSVKGRFTISRDNAKNTVFLQMNSLIPEDTAVFYCKAEYWYEGRYPYDYWGQGTQVTVSS", "polyreactivity (PSR sort gate)": "low polyreactivity"},
      {"sequence": "QVQLVESGGGLVQAGGSLRLSCAASGYTFDYYAMGRYRQAPGNERELVAAITNSGGSTYYADSVKGRFTISRDNAKKTVYLQMNSLKPEDPAVYYCAALYYVKPGQRYDYWGQGTQVTVSS", "polyreactivity (PSR sort gate)": "high polyreactivity"},
      {"sequence": "QVQLVESGGGLVQAGGSLRLSCAASGYTFFEYTMGWYRQAPGKVREFVAAISWSGGITYYADSVKGRFTISRDNAKNTVYLQMNSLKPEDTAVYYCNADIYSPTPIDYNYWGQGTQVTVSS", "polyreactivity (PSR sort gate)": "low polyreactivity"},
      {"sequence": "QVQLVESGGGLVQAGGSLRLSCAASGYTFGGYAMGWYRQAPGKERELVAAISGSGVRTYYADSVKGRFTISRDNAKNTVYLQMNSLKPEDTAVYYCAKRVRYPGDRYYYWGQGTQVTVSS", "polyreactivity (PSR sort gate)": "high polyreactivity"},
      {"sequence": "QVQLVESGGGLVQAGGSLRLSCAASGYTFGHYAMGWYRQAPGKERELVAVITSGGSTNYADSVKGRFTISRDNAKNTVYLQMNSLKPEDTAVYYCAADLYFYYVWIRDYWGQGTQVTVSS", "polyreactivity (PSR sort gate)": "low polyreactivity"},
      {"sequence": "QVQLVESGGGLVQAGGSLRLSCAASGYTFGIYAMGWYRQAPGKAREFVAAIRWSDTSTSYADSVKWRFTISRDNAKNTVYLQMNSLKPEDTAVYNCAADTFYLYDYWGQGTQVTVSS", "polyreactivity (PSR sort gate)": "low polyreactivity"},
      {"sequence": "QVQLVESGGGLVQAGGSLRLSCAASGYTFGLYTMGWYRQAPGKEREFVATIDWSDGGTHYADSVKGRFTISRDNAKNTVYLQMNSLKPEDTAVYYCNADWYAYPYGYWGQGTQVTVSS", "polyreactivity (PSR sort gate)": "low polyreactivity"},
      {"sequence": "QVQLVESGGGLVQAGGSLRLSCAASGYTFGTYDKGWYRQAPGKERELVAAISIGGSTNYADSVKGRFTISRDNAKNTVYLQMNSLKPEDTAVYYCAAEVNVGTLLLSVIVEDGDYWGQGTQVTVSS", "polyreactivity (PSR sort gate)": "low polyreactivity"},
      {"sequence": "QVQLVESGGGLVQAGGSLRLSCAASGYTFGTYTMGWYRMARWKERELVAGIDSGGTTNYADSVKGRFTISRDNATNTVYLQMHSLKPEHTAVYYSTAYHLLIVDYYLGLYYYRGNYYWGQGTQVTVSS", "polyreactivity (PSR sort gate)": "low polyreactivity"},
      {"sequence": "QVQLVESGGGLVQAGGSLRLSCAASGYTFGTYTMGWYRQAPGKERELVAGIDSGGTTNYADSVKGRFTISRDNAKNTVYLKMNRVKPEDTAVYYCTAYHLLIVDYYLGMYYYGGNYYWGQGNQVTVSS", "polyreactivity (PSR sort gate)": "low polyreactivity"},
      {"sequence": "QVQLVESGGGLVQAGGSLRLSCAASGYTFKSYVMGWYRQAPGKERELVAAITSIGGSTYYADSVKGRFTISRDNAKNTVYLQMNRLKPEDTAVYYCAARSFRFYPRMHDWGQGTQVTVSS", "polyreactivity (PSR sort gate)": "high polyreactivity"},
      {"sequence": "QVQLVESGGGLVQAGGSLRLSCAASGYTFKTYAMGWYRQAPVKERELVAAISGSGGSTYYADSVKGRFTISRDNAKNTVYLQMNSLKPEDTAVYYCNASPTTTPNFWRYDYWGQGTQVTVSS", "polyreactivity (PSR sort gate)": "high polyreactivity"},
      {"sequence": "QVQLVESGGGLVQAGGSLRLSCAASGYTFKTYPMGSYRQAPGKERELVAAISGSGGSTYYADSVKVRFTISRDNAKNTVYLQMNSLNPEDTAVYYCNASPTTTPNFWRYDYWGQGTQVTVSS", "polyreactivity (PSR sort gate)": "high polyreactivity"},
      {"sequence": "QVQLVESGGGLVQAGGSLRLSCAASGYTFLGYAMGWSRQAPGKERELVAAIRRSGGRTYYADSVKGRFTISRDNAKNTVYLQMNSLKPEDTAVYYCAKGYVGEYDYWGQGTQVTVSS", "polyreactivity (PSR sort gate)": "high polyreactivity"},
      {"sequence": "QVQLVESGGGLVQAGGSLRLSCAASGYTFLHYAMGWYRQAPGKERELVAAISGSGGRTYYADSVKGRFTISRDNAKNTVYLQMNSLKPEDTAVYYCAAPYSSRNYYYWGQGTQVTVSS", "polyreactivity (PSR sort gate)": "high polyreactivity"},
      {"sequence": "QVQLVESGGGLVQAGGSLRLSCAASGYTFNGYAMGWYRQAPGKERELVAAISWSGGSTYYADSVKGRFTISRDNAKNTFYLQMNSLKPEDTAVYYCARRGPSGVYNDGGYGLDDDYWGQGTQVTVSS", "polyreactivity (PSR sort gate)": "low polyreactivity"},
      {"sequence": "QVQLVESGGGLVQAGGSLRLSCAASGYTFPQYAMGWYRQAPGKERELVAAITRRGGSTYYADSVKGRFTISRDNAKNTVYLQMNSLKPEDSAVYNCAADSYPYSHGGDYWGQGTQVTVSS", "polyreactivity (PSR sort gate)": "high polyreactivity"},
      {"sequence": "QVQLVESGGGLVQAGGSLRLSCAASGYTFPQYAMRWYRQAPGKERELVAAITRRGGSTYYADSVKGRFTISRDNAKNTVYLQMNSLNPEDTAVYYGSARYYWGQGTQVTVSS", "polyreactivity (PSR sort gate)": "high polyreactivity"},
      {"sequence": "QVQLVESGGGLVQAGGSLRLSCAASGYTFPSNAMGWYRQAPGKERDWVAAISSGGRTNYADSVKGRFTISRDNAKNTVYLQMNSLKPEDTAVYYCNADGGPGYPRAYDYWGQGTQVTVSS", "polyreactivity (PSR sort gate)": "low polyreactivity"},
      {"sequence": "QVQLVESGGGLVQAGGSLRLSCAASGYTFQRYAMGRYRQAPGKERELVATISKRGGSTYYADSVKGRFTISRDNAKNTVYLQMNSLKPDDTAVYYCATATPEYRGYWPWQYAGGDYWGQGTQVTVSS", "polyreactivity (PSR sort gate)": "high polyreactivity"},
      {"sequence": "QVQLVESGGGLVQAGGSLRLSCAASGYTFRFNAMGWYRQAPGKERELVARISKSGGSTYYADSVKGRFTISRDNAKNTVYLQMNSLKPEDTAVYYCAAKDYVWGQGTQVTVSS", "polyreactivity (PSR sort gate)": "low polyreactivity"},
      {"sequence": "QVQLVESGGGLVQAGGSLRLSCAASGYTFRGYAMGWSRQAPGKERELVAAISWSGGRTYYADSVKGRFTISRDNAKYTVYLQMNSLKPEDTAVYYCAAPGQHSWGQGTQVTVSS", "polyreactivity (PSR sort gate)": "high polyreactivity"},
      {"sequence": "QVQLVESGGGLVQAGGSLRLSCAASGYTFRSNVMGWYRQAPGKERELVAAISRGTRTKYADSVKGRFTISRDNAKNTVYLQMNSLKPEDTAVYYCAADTGTGLDWGQGTQVTVSS", "polyreactivity (PSR sort gate)": "high polyreactivity"},
      {"sequence": "QVQLVESGGGLVQAGGSLRLSCAASGYTFRSYLGWYRQAPGKEREFVADISTSVTNTYYADSVKGRFTISRDNAKNTVYLQMISLKPEDTAVYYCAAGVQSVYNGEPGIILDFDYWGQGTQVTVSS", "polyreactivity (PSR sort gate)": "low polyreactivity"},
      {"sequence": "QVQLVESGGGLVQAGGSLRLSCAASGYTFRTNVMGWYRQAPGTERELVATINWRGGSTYYADSVKGRFTISRDYAKNTVYLLINSLKPEDTAVYYCAADGLSNVRQMDYWGQGTQVTVSS", "polyreactivity (PSR sort gate)": "low polyreactivity"},
      {"sequence": "QVQLVESGGGLVQAGGSLRLSCAASGYTFRVYTMGWYRQAPGTERELVAAISRRGSRTYYADSVKGRFTISRDNAKNTVYLQMNSLKPEDTAVYYCAAGIPYPDDYWGQGSQVTVSS", "polyreactivity (PSR sort gate)": "high polyreactivity"}
    ]}
  ]
}
